Key:
[1] = biological target: Entamoeba histolytica Phosphoserine aminotransferase (Entamoeba histolytica); test: SEC; Superdex 200 10/300 GL column, EhPSAT at pH 6, 7, 8 and 9; calibrated with ferritin, aldolase, conalbumin and ovalbumin; also run with 200 mM NaCl or NaF
[2] = biological target: Entamoeba histolytica Phosphoserine aminotransferase (Entamoeba histolytica); test: cross-linking; glutaraldehyde cross-linking of EhPSAT incubated at pH 9, 8, 7 and 6, analysed on 10% SDS-PAGE

Entamoeba histolytica Phosphoserine aminotransferase (enzyme)
stoichiometry N [1]: 2
stoichiometry N [2]: 2

Reference: article PMC2850911
